Reference: IntAct's records for PubMed 10206957

B1: Signal peptidase complex catalytic subunit SEC11 (Saccharomyces cerevisiae), P15367 (parent)
chain: MNLRFELQKLLNVCFLFASAYMFWQGLAIATNSASPIVVVLSGSMEPAFQRGDILFLWNRNTFNQVGDVVVYEVEGKQIPIVHRVLRQHNNHADKQFLLTKGDNNAGNDISLYANKKIYLNKSKEIVGTVKGYFPQLGYITIWISENKYAKFALLGMLGLSALLGGE
partner: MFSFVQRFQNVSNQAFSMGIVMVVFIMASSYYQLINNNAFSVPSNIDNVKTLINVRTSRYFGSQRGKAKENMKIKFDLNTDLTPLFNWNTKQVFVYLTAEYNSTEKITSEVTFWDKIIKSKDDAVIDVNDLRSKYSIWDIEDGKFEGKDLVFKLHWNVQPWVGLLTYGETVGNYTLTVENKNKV

Variants of: B1
Conditions: with spc3_yeast SPC3, Q12133

| effect of a mutation on the interaction | Variant |
| --- | --- |
| decreasing interaction | D103N |
